Read-outs that look alike come from different tables or passages of the source.
Key:
[1] = target: T1, IGF-1R (receptor for insulin-like growth factor 1), endogenous on human tumor cell lines (human, UniProt P08069 31-1367); assay: cell-based or functional assay
[2] = target: T2, ErbB3 (HER3), endogenous on human tumor cell lines (human, UniProt P21860 20-1342); assay: cell-based or functional assay
[3] = target: T1, IGF-1R (receptor for insulin-like …); assay: cell-based or functional assay; remark: listed apart in the source
[4] = target: T2, ErbB3 (HER3), endogenous on human tumor …; assay: cell-based or functional assay; remark: listed apart in the source
[5] = target: T1, IGF-1R (receptor for insulin-like …); assay: cell-based or functional assay; remark: listed apart in the source
[6] = target: T2, ErbB3 (HER3), endogenous on human tumor …; assay: cell-based or functional assay; remark: listed apart in the source
[7] = target: T1, IGF-1R (receptor for insulin-like …); assay: cell-based or functional assay; remark: listed apart in the source
mouse ErbB3-His = target: T3, mouse ErbB3-His (mouse, UniProt Q61526 20-641, limits assumed); assay: ELISA, species specific ErbB3-His coated plate
T3 construct: not shown: His tag, not further described for this species form
Description: (§1) 96-well Reacti-bind® plates (Pierce, Fisher cat. No. PI-I5041) are coated with 50 ul of species specific ErbB3-His or IGF-1R-His (R&D Systems, cat. No. 348-RB and 305-GR, respectively) at 2 ug/ml in PBS and incubated overnight at 4° C. The next day plates are washed with PBS+0.05% Tween-20 (PBS-T) and blocked for 1 hr. at room temperature with 100 ul of Protein-Free Blocking Buffer (Pierce). Plates are washed with PBS-T and 50 ul of each PBA is added in duplicate. Concentrations start at 500 nM (in PBS-T) and included ten additional two-fold dilutions and one blank (PBS-T only). Plates are incubated at room temperature for two hours and then washed with PBS-T. 50 ul of anti-Fc-HRP (Jackson Labs) is added at 1:40,000 in PBS-T, and plates are incubated in the dark for 1 hr. at room temperature. Plates are again washed with PBS-T and 100 ul of TMB substrate (Thermo Scientific, TMB and peroxide solution mixed 1:1) is added. The plates are incubated for 5-15 minutes at room temperature until a blue color develops, and the reaction is stopped with 100 ul of STOP solution (Cell Signaling Technology). The absorbance is read at 450 nm on a PerkinElmer Envision plate reader, and binding curves are generated using GraphPad Prism.

rat ErbB3-His = target: T4, rat ErbB3-His (rat, UniProt Q62799 20-641, limits assumed); assay: ELISA, species specific ErbB3-His coated plate
T4 construct: not shown: His tag, not further described for this species form
Description: as §1

mouse IGF-1R-His = target: T5, mouse IGF-1R-His (mouse, UniProt Q60751 31-936, limits assumed); assay: ELISA, species specific IGF-1R-His coated plate
T5 construct: not shown: His tag, not further described
Description: as §1

[8] = target: T2, ErbB3 (HER3), endogenous on human tumor …; assay: cell-based or functional assay; remark: listed apart in the source
[9] = target: T2, ErbB3 (HER3), endogenous on human tumor …; assay: cell-based or functional assay; remark: listed apart in the source
[10] = target: T2, ErbB3 (HER3), endogenous on human tumor …; assay: cell-based or functional assay; remark: listed apart in the source
[11] = target: T1, IGF-1R (receptor for insulin-like …); assay: summary sentence of Example 3 (FACS on cells)
Description: (§2) 1×10⁵ MCF7 cells or 1×10⁵ ADRr cells are incubated at room temperature for 2 hours with each of ELI-7, ILE-10 and ILE-12, two anti-ErB3 antibodies and one anti-IGF-1R antibody at 2 uM, followed by 12 subsequent 3-fold dilutions. Then using goat anti-HSA-Alexa647 conjugated antibody as the detection antibody, cells are incubated on ice for 40 minutes. Cell binding dissociation constants (measures of binding affinities) of the antibodies on MCF7 and ADRr cells are assessed by FACS and apparent dissociation constants are determined for each protein. The following results were obtained (see also FIGS. 14A and 14B): […]

[12] = target: T2, ErbB3 (HER3), endogenous on human tumor …; assay: summary sentence of Example 3 (FACS on cells)
Description: as §2

[13] = target: T1, IGF-1R (receptor for insulin-like …); assay: cell-based or functional assay; remark: listed apart in the source
[14] = target: T2, ErbB3 (HER3), endogenous on human tumor …; assay: cell-based or functional assay; remark: listed apart in the source

T2 sequence (P21860 20-1342 limits assumed): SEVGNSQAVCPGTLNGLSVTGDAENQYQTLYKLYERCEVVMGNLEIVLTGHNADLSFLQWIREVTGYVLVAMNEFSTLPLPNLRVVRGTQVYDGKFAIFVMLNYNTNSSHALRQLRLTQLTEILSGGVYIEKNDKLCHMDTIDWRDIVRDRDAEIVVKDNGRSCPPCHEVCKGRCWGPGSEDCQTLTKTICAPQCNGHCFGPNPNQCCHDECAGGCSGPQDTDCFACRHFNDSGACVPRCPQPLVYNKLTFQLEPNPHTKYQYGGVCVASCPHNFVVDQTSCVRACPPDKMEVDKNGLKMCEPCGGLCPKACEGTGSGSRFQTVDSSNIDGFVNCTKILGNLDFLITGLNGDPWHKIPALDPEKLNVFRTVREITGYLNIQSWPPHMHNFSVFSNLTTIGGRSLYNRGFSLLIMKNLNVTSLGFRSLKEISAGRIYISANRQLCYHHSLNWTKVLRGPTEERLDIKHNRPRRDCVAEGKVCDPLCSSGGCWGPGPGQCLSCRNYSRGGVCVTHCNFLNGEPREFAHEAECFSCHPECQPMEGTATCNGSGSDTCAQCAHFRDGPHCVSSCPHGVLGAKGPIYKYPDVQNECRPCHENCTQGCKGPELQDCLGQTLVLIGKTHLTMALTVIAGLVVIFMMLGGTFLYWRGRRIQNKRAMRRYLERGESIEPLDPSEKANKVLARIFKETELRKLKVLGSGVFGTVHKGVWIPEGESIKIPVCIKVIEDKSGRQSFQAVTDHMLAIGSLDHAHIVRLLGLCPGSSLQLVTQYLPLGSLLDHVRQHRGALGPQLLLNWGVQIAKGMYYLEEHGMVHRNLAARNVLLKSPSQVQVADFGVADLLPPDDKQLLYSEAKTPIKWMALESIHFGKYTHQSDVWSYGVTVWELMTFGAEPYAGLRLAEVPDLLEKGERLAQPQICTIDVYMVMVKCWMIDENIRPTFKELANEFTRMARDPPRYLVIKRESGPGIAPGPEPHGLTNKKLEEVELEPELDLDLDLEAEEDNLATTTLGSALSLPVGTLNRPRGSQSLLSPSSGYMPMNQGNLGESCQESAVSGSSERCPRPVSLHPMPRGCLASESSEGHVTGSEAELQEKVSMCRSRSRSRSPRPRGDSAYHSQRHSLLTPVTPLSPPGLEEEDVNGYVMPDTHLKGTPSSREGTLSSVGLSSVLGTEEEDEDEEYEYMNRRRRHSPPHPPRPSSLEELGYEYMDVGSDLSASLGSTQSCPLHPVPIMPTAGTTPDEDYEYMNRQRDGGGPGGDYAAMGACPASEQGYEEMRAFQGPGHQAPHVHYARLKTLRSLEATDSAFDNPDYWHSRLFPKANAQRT
T1 sequence (P08069 31-1367): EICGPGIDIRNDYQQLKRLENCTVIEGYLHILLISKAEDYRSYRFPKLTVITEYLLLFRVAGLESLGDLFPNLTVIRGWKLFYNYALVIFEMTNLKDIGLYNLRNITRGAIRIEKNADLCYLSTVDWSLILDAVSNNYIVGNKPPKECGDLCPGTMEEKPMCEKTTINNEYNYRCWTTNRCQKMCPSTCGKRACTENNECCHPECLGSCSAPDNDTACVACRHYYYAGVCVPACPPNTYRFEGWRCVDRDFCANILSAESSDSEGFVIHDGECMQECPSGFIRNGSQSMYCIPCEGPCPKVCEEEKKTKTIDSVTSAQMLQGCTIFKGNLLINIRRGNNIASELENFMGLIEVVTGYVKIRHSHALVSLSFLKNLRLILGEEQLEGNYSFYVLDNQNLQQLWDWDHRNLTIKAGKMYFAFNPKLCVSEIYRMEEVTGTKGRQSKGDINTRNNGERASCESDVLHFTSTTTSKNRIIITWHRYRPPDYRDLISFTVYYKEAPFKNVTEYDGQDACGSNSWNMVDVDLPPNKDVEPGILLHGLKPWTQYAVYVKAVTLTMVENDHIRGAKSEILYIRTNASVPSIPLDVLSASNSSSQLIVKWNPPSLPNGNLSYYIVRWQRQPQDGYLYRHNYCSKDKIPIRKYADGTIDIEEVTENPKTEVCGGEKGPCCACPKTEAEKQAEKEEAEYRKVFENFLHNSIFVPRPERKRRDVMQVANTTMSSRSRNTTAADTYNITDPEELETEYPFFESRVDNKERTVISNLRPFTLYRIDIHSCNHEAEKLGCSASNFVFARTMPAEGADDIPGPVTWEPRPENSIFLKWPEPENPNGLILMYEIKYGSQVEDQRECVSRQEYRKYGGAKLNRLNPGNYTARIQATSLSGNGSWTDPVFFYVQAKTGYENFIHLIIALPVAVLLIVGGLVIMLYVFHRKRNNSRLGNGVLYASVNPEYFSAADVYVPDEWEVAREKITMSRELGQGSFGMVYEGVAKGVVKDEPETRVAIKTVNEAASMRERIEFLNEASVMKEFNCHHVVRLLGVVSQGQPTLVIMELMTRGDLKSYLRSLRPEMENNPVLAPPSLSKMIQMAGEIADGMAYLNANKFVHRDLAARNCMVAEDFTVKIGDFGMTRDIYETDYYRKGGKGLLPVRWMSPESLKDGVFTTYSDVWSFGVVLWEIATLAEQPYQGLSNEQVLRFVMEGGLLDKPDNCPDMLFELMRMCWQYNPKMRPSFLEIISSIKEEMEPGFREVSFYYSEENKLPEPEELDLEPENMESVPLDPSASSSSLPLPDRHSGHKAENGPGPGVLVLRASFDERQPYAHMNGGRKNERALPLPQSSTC
T4 sequence (Q62799 20-641 limits assumed): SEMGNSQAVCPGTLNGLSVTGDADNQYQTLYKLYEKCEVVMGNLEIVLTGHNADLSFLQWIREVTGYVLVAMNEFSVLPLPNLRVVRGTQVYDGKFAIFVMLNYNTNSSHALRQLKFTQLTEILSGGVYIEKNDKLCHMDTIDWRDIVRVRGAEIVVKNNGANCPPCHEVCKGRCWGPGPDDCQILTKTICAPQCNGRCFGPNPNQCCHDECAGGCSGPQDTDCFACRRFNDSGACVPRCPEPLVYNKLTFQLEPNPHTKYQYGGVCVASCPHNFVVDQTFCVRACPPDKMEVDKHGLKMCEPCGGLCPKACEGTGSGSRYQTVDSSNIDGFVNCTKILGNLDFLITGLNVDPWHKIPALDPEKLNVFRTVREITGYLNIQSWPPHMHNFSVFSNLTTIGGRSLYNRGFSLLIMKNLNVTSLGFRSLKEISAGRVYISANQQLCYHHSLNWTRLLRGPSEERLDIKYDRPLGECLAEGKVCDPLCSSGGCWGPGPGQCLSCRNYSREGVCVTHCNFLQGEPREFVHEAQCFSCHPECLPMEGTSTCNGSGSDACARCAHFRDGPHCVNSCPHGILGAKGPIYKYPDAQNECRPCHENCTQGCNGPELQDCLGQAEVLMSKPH
T3 sequence (Q61526 20-641 limits assumed): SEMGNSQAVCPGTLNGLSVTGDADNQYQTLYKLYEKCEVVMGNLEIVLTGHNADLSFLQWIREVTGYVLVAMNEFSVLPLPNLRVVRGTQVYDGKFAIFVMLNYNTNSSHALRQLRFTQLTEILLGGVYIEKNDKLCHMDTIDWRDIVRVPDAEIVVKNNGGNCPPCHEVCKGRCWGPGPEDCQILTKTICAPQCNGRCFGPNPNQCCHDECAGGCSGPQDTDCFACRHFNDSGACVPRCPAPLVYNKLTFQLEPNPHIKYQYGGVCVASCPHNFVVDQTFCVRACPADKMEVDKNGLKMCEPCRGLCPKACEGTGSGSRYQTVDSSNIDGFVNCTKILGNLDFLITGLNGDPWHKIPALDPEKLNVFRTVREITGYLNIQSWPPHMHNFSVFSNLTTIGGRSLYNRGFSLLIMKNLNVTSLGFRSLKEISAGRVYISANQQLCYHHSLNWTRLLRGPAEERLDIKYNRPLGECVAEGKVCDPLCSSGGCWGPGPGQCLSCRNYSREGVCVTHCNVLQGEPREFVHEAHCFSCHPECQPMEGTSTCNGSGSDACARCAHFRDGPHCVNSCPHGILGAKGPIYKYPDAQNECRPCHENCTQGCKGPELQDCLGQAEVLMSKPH

B1: M7-G1-M78 (bispecific antibody, human IgG1, lambda)
heavy: not shown
light: SSELTQDPAVSVALGQTVRITCQGDSLRSYYASWYQQKPGQAPVLVIYGKNNRPSGIPDRFSGSSSGNTASLTITGAQAEDEADYYCNSRDTPGNKWVFGGGTKVTVIGQPKAAPSVTLFPPSSEELQANKATLVCLVSDFYPGAVTVAWKADGSPVKVGVETTKPSKQSNNKYAASSYLSLTPEQWKSHRSYSCRVTHEGSTVEKTVAPAECS
notes: IgG1-(scFv)2: anti-ErbB3 Fab, anti-IGF-1R scFv; also called M7-M78; M7-78
pIGF1R % Inhibition (BxPC-3) [1]: 88%
pIGF1R IC50 (BxPC-3) [1]: 1.3e-09 M (inferred)
pErbB3 % Inhibition (BxPC-3) [2]: 111%
pErbB3 IC50 (BxPC-3) [2]: 2.6e-11 M (inferred)
pIGF1R IC50 (BxPC-3) [3]: 1.3e-09 M (inferred)
pErbB3 IC50 (BxPC-3) [4]: 2.6e-11 M (inferred)
pAKT IC50 (BxPC-3, IGF1 40 ng/ml) [5]: 3.8e-10 M
pAKT IC50 (BxPC-3, IGF1 400 ng/ml) [5]: 6.4e-10 M
pIGF1R IC50 (BxPC-3, IGF1 40 ng/ml) [5]: 1e-09 M
pIGF1R IC50 (BxPC-3, IGF1 400 ng/ml) [5]: 2.4e-09 M
pAKT IC50 (BxPC-3, HRG 20 ng/ml) [6]: 7.12e-11 M
pAKT IC50 (BxPC-3, HRG 200 ng/ml) [6]: 6.46e-11 M
pErbB3 IC50 (BxPC-3, HRG 20 ng/ml) [6]: 6.16e-11 M
pErbB3 IC50 (BxPC-3, HRG 200 ng/ml) [6]: 6.53e-11 M
% IGF1R Downregulation (A549, 24 h) [7]: 48%
% IGF1R Downregulation (BxPC-3, 24 h) [7]: 53%
binding result (mouse ErbB3-His): binds
binding result (rat ErbB3-His): binds
binding result (mouse IGF-1R-His): binds

B2: ANTI-ErbB3 Ab# A (antibody, V domains shown)
VH: QVQLQQWGAGLLKPSETLSLTCAVYGGSFSGYYWSWIRQPPGKGLEWIGEINHSGSTNYNPSLKSRVTISVETSKNQFSLKLSSVTAADTAVYYCARDKWTWYFDLWGRGTLVTVSS
VL: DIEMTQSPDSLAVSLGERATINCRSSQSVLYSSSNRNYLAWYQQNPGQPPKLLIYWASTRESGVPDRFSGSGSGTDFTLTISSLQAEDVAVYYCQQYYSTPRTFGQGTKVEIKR
pAKT IC50 (BxPC-3) [8]: 3.9e-10 M (inferred)
pAKT IC50 (DU145) [8]: 2.8e-10 M (inferred)
pErbB3 IC50 (BxPC-3) [8]: 5.1e-11 M (inferred)
pErbB3 IC50 (DU145) [8]: 8.2e-11 M (inferred)
pAKT IC50 (BxPC-3) [9]: 5.7e-09 M (inferred)
pErbB3 IC50 (BxPC-3) [9]: 4.3e-10 M (inferred)
pAKT IC50 (BxPC-3) [4]: 3.5e-10 M (inferred)
pErbB3 IC50 (BxPC-3) [4]: 9.2e-11 M (inferred)
pAKT IC50 (BxPC-3 50% ErbB3 KD) [10]: 2.8e-10 M
pAKT IC50 (BxPC-3 50% IGF1R KD) [10]: 1.6e-09 M
pAKT IC50 (BxPC-3 Vector Control) [10]: 2.5e-09 M
pAKT IC50 (BxPC-3, HRG 20 ng/ml) [6]: 3.06e-10 M
pAKT IC50 (BxPC-3, HRG 200 ng/ml) [6]: 3.26e-10 M
pErbB3 IC50 (BxPC-3, HRG 20 ng/ml) [6]: 2.41e-10 M
pErbB3 IC50 (BxPC-3, HRG 200 ng/ml) [6]: 1.98e-10 M

B3: ILE-10 (bispecific antibody, human IgG2, kappa)
heavy: EVQLLESGGGLVQPGGSLRLSCAASGFTFSVYPMHWVRQAPGKGLEWVSSISSSGGATRYADSVKGRFTISRDNSKNTLYLQMNSLRAEDTAVYYCAKDFYDILTGNAFDIWGQGTMVTVSSASTKGPSVFPLAPCSRSTSESTAALGCLVKDYFPEPVTVSWNSGALTSGVHTFPAVLQSSGLYSLSSVVTVPSSNFGTQTYTCNVDHKPSNTKVDKTVERKCCVECPPCPAPPVAGPSVFLFPPKPKDTLMISRTPEVTCVVVDVSHEDPEVQFNWYVDGVEVHNAKTKPREEQFNSTFRVVSVLTVVHQDWLNGKEYKCKVSNKGLPAPIEKTISKTKGQPREPQVYTLPPSREEMTKNQVSLTCLVKGFYPSDIAVEWESNGQPENNYKTTPPMLDSDGSFFLYSKLTVDKSRWQQGNVFSCSVMHEALHNHYTQKSLSLSPGKGGGGSGGGGSGGGGSLQEVQLLESGGGLVQPGGSLRLSCAASGFTFSAYNMRWVRQAPGKGLEWVSVIYPSGGATRYADSVKGRFTISRDNSKNTLYLQMNSLRAEDTAVYYCARGYYYYGMDVWGQGTLVTVSSASTGGGGSGGGGSGGGGSQSVLTQPPSASGTPGQRVTISCSGSDSNIGRNYIYWYQQFPGTAPKLLIYRNNQRPSGVPDRISGSKSGTSASLAISGLRSEDEAEYHCGTWDDSLSGPVFGGGTKLTVLS
light: DIQMTQSPSSFSASTGDRVTITCRASQGISSYLAWYQQKPGKAPKLLIYAASTLQSGVPSRFSGSGSGTDFTLTISSLQPEDSATYYCQQYFTFPLTFGGGTKVEIKRTVAAPSVFIFPPSDEQLKSGTASVVCLLNNFYPREAKVQWKVDNALQSGNSQESVTEQDSKDSTYSLSSTLTLSKADYEKHKVYACEVTHQGLSSPVTKSFNRGEC
notes: anti-IGF-1R/anti-ErbB3 IgG2-(scFv)2: anti-IGF-1R IgG2 (module 5-7), anti-ErbB3 scFv (module 2-3); also called 14F; 14f
binding result [11]: binds
binding result [12]: binds

B4: ILE-12 (bispecific antibody, human IgG2, kappa)
heavy: EVQLLESGGGLVQPGGSLRLSCAASGFTFSVYPMHWVRQAPGKGLEWVSSISSSGGATRYADSVKGRFTISRDNSKNTLYLQMNSLRAEDTAVYYCAKDFYDILTGNAFDIWGQGTMVTVSSASTKGPSVFPLAPCSRSTSESTAALGCLVKDYFPEPVTVSWNSGALTSGVHTFPAVLQSSGLYSLSSVVTVPSSNFGTQTYTCNVDHKPSNTKVDKTVERKCCVECPPCPAPPVAGPSVFLFPPKPKDTLMISRTPEVTCVVVDVSHEDPEVQFNWYVDGVEVHNAKTKPREEQFNSTFRVVSVLTVVHQDWLNGKEYKCKVSNKGLPAPIEKTISKTKGQPREPQVYTLPPSREEMTKNQVSLTCLVKGFYPSDIAVEWESNGQPENNYKTTPPMLDSDGSFFLYSKLTVDKSRWQQGNVFSCSVMHEALHNHYTQKSLSLSPGKGGGGSGGGGSGGGGSLQEVQLLESGGGLVQPGGSLRLSCAASGFTFSVYDMYWVRQAPGKGLEWVSYIYSSGGDTDYADSVKGRFTISRDNSKNTLYLQMNSLRAEDTATYYCARASTNSIYDAMDVWGQGTTVTVSSASTGGGGSGGGGSGGGGSDIQMTQSPSSVSASVGDRVTITCRASQDITNWLAWYQQKPGKAPTLLIYDASTLQSGVPSRFSGSGSGTDFTLTISSLQPEDFATYFCQQANGFPLTFGGGTKVEIK
light: B3 light
notes: anti-IGF-1R/anti-ErbB3 IgG2-(scFv)2: anti-IGF-1R IgG2 (module 5-7), anti-ErbB3 scFv (module 2-21)
binding result [11]: binds
binding result [12]: binds

B5: ELI-7 (bispecific antibody, human IgG2, lambda)
heavy: EVQLLESGGGLVQPGGSLRLSCAASGFTFSAYNMRWVRQAPGKGLEWVSVIYPSGGATRYADSVKGRFTISRDNSKNTLYLQMNSLRAEDTAVYYCARGYYYYGMDVWGQGTLVTVSSASTKGPSVFPLAPCSRSTSESTAALGCLVKDYFPEPVTVSWNSGALTSGVHTFPAVLQSSGLYSLSSVVTVPSSNFGTQTYTCNVDHKPSNTKVDKTVERKCCVECPPCPAPPVAGPSVFLFPPKPKDTLMISRTPEVTCVVVDVSHEDPEVQFNWYVDGVEVHNAKTKPREEQFNSTFRVVSVLTVVHQDWLNGKEYKCKVSNKGLPAPIEKTISKTKGQPREPQVYTLPPSREEMTKNQVSLTCLVKGFYPSDIAVEWESNGQPENNYKTTPPMLDSDGSFFLYSKLTVDKSRWQQGNVFSCSVMHEALHNHYTQKSLSLSPGKGGGGSGGGGSGGGGSLQEVQLLESGGGLVQPGGSLRLSCAASGFTFSVYPMHWVRQAPGKGLEWVSSISSSGGATRYADSVKGRFTISRDNSKNTLYLQMNSLRAEDTAVYYCAKDFYDILTGNAFDIWGQGTMVTVSSASTGGGGSGGGGSGGGGSDIQMTQSPSSFSASTGDRVTITCRASQGISSYLAWYQQKPGKAPKLLIYAASTLQSGVPSRFSGSGSGTDFTLTISSLQPEDSATYYCQQYFTFPLTFGGGTKVEIK
light: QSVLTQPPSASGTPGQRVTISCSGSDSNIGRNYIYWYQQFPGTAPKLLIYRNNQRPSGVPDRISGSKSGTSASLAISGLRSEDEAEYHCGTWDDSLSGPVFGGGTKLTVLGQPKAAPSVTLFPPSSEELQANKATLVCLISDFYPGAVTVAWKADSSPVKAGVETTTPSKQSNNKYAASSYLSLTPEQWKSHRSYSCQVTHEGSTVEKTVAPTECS
pIGF-1R IC50 (BxPC-3, HRG+IGF1) [13]: 10 nM
pErbB3 IC50 (BxPC-3, HRG+IGF1) [14]: 3.7 nM
